Test results as given in article PMC3680600 (Journal of the American Chemical Society, 2013).
No end group written: not given here.

Molecular target: full-length recombinant human NEMO (Homo sapiens, UniProt Q9Y6K9, C11A/C131A/C167A/C76A/C95A)
Assay: Fluorescence anisotropy
Conditions: KD2 competition assay vs KD1 direct binding assay

Substance | KD2 of unlabeled peptide relative to KD1 of FITC-IKKβ
PAKKSEELVAEAHNLCTLLENAIQDTVREQDQSFTALDWSWLQTE [IKKβ(701–745)] | ~ 4 fold

Molecular target: NF-κB Essential Modulator (NEMO), full-length recombinant human protein (residues 2–419) with five cysteine-to-alanine substitutions (human) (UniProt Q9Y6K9)
Assay: fluorescence polarisation
Conditions: not given

Substance | Kd
cleaved IKKβ peptide D738A (from UniProt O14920 701-745) | 11 µM
MBP-IKKβ-His(C716S) W739A (from UniProt O14920 701-745) (domain or fragment) | > 0.87 µM
MBP-IKKβ-His(C716S) L719A (from UniProt O14920 701-745) (domain or fragment) | > 0.87 µM
MBP-IKKβ-His(C716S) W741A (from UniProt O14920 701-745) (domain or fragment) | > 0.87 µM
MBP-IKKβ-His(C716S) D738A (from UniProt O14920 701-745) (domain or fragment) | > 0.87 µM
MBP-IKKβ-His(C716S) L708A (from UniProt O14920 701-745) (domain or fragment) | > 0.87 µM
cleaved IKKβ peptide L719A (from UniProt O14920 701-745) | 21 µM
cleaved IKKβ peptide W741A (from UniProt O14920 701-745) | 9.3 µM
MBP-IKKβ-His(C716S) L742A (from UniProt O14920 701-745) (domain or fragment) | > 0.87 µM
cleaved IKKβ peptide W739A (from UniProt O14920 701-745) | 35 µM
cleaved IKKβ peptide L742A (from UniProt O14920 701-745) | 5.5 µM
WT MBP-IKKβ-His (from UniProt O14920 701-745) (domain or fragment) | 0.015 µM
cleaved IKKβ peptide L708A (from UniProt O14920 701-745) | 2.7 µM
